Sequences and labels used below:
B1: WSB1 (parent)
chain: FSHDGLHVASLADDKMVRFWRIDE
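Also: lentivirally expressed fusions sorted by FACS into six bins by GFP to DsRed ratio, PSI derived from sequencing read proportions per bin multiplied by bin number.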

This data set covers variants of B1. Briefly: protein stability index of a GFP-peptide fusion (GPS, HEK-293T) (PSI 1-6); higher = more stable. Particulars: c terminus: a fixed tail appended.
On to FSHDGLHVFSLADDKMVRFWRIDE [A9F], for which the protein stability index was 5.19. Consider FSHDGLHVVSLADDKMVRFWRIDE [A9V], for which the protein stability index was determined as 2.55. In the case of FSHDGLHVHSLADDKMVRFWRIDE [A9H], the protein stability index was found to be 1.7. Then FSHDGLHVASLADDKMVRGWRIDE [F19G], with 2.38; and FSHDGLHVASLADDKMVRRWRIDE [F19R], with 3.11.

With FSHDGLHVASLADDKMVRVWRIDE [F19V], the protein stability index is 2.15. For FSHDGLHVASLADDKMVRLWRIDE [F19L] the value was 3.32; for FSHDGLHVASLADDKMVRMWRIDE [F19M], 3.75; for FSHDGLHVASLADDKMVRKWRIDE [F19K], 2.38. With FSHDGLHVASLADDKMVRFWWIDE [R21W], the protein stability index worked out at 2.12. As for FSHDGLHVASLAKDKMVRFWRIDE [D13K], the protein stability index stood at 1.88. For the variant FSHDGLHVASLALDKMVRFWRIDE [D13L], the protein stability index amounted to 2.13. FSHDGLHVASLAMDKMVRFWRIDE [D13M]: the protein stability index was determined as 1.22. Consider FSHDGLPVASLADDKMVRFWRIDE [H7P], for which the protein stability index amounted to 2.09. For FSHDGLQVASLADDKMVRFWRIDE [H7Q] the value was 1.08. On to FSHDGLVVASLADDKMVRFWRIDE [H7V], for which the protein stability index was 2.42.

FSHDGLDVASLADDKMVRFWRIDE [H7D]: the protein stability index was 3.61. With FSHDGLIVASLADDKMVRFWRIDE [H7I], the protein stability index is 2.17. As for FSHDGLNVASLADDKMVRFWRIDE [H7N], the protein stability index was determined as 1.68. Regarding FSHDGLHVASLADDKMVRFWRIPE [D23P], the protein stability index came to 3.58.

Consider FSHDGLHVASLADDKMVRFWRIFE [D23F], for which the protein stability index stood at 2.1. Take FSHDGLHVASLADDKMVRFWRIWE [D23W]: the protein stability index came to 2.11. For FSHDGLHVASLADDKMVRFWRIQE [D23Q] the value was 1.9; for FSHDGLHVASLADDKMVRFWRICE [D23C], 1.21; for FSHDGLHVASLADDKMVRFWRIKE [D23K], 2.02. For the variant FSHEGLHVASLADDKMVRFWRIDE [D4E], the protein stability index was 1.94. For the variant FSHKGLHVASLADDKMVRFWRIDE [D4K], the protein stability index turned out to be 1.8. As for FSHLGLHVASLADDKMVRFWRIDE [D4L], the protein stability index was found to be 1.53. For the variant FSHDGLHVASLADDKMVMFWRIDE [R18M], the protein stability index amounted to 2.37.

Regarding FSHDGLHVASLADDKMVPFWRIDE [R18P], the protein stability index is 1.83. Then FSHDGLHVASLADDKMVDFWRIDE [R18D], with 2.03. On to FSHDGLHVASLADDKMVQFWRIDE [R18Q], for which the protein stability index was determined as 2.01. FSHDGLHVASLADDKMARFWRIDE [V17A]: the protein stability index was found to be 1.15.

As for FSHDGLHVASLADDKMTRFWRIDE [V17T], the protein stability index stood at 1.56. With FSHDGLHVASLADDKMYRFWRIDE [V17Y], the protein stability index came to 1.91. Then FSHDGLHVASLADDKMDRFWRIDE [V17D], with 1.96; and FSHDGLHVASLADDKMERFWRIDE [V17E], with 2.75. As for FSHDGLHVASSADDKMVRFWRIDE [L11S], the protein stability index is 1.05. For the variant FSHDGLHVASRADDKMVRFWRIDE [L11R], the protein stability index worked out at 1.66.

Consider FSHDGLHVASLADDKMVRFCRIDE [W20C], for which the protein stability index was determined as 2.42. With FSHDGLHVASLADDKMVRFERIDE [W20E], the protein stability index was 3.18.

As to FSHDGLHVASLADDKMVRFFRIDE [W20F], the protein stability index worked out at 2.09. Then FSHDGLHVASLADDKMVRFLRIDE [W20L], with 1.88; and FSHDGLHVASLADDKMVRFKRIDE [W20K], with 2.69; and FSHDCLHVASLADDKMVRFWRIDE [G5C], with 1.34. In the case of FSHDVLHVASLADDKMVRFWRIDE [G5V], the protein stability index was found to be 2.61. Regarding FSHDGLHVASLADDKMVRFWRIDG [E24G], the protein stability index turned out to be 1.23.

For the variant FSHDGLHVASLADDKMVRFWRIDP [E24P], the protein stability index stood at 1.86. FSHDGLHVASLADDKMVRFWRIDD [E24D]: the protein stability index was found to be 1.56. For FSHDGLHVASLADDKMVRFWRIDL [E24L] the value was 2.85; for FSHDGLHVASLTDDKMVRFWRIDE [A12T], 1.79. Regarding FSHDGLHVASLWDDKMVRFWRIDE [A12W], the protein stability index was found to be 1.23.

With FSHDGLHVASLLDDKMVRFWRIDE [A12L], the protein stability index turned out to be 2.04. FSWDGLHVASLADDKMVRFWRIDE [H3W]: the protein stability index is 1.62.

Take FSQDGLHVASLADDKMVRFWRIDE [H3Q]: the protein stability index is 2.03. Consider FSADGLHVASLADDKMVRFWRIDE [H3A], for which the protein stability index was 2.89.

With FSHDGLHVASLADLKMVRFWRIDE [D14L], the protein stability index was 1.58. With FSHDGLHVASLADEKMVRFWRIDE [D14E], the protein stability index was found to be 1.58. Turning to FSHDGLHVASLADTKMVRFWRIDE [D14T], the protein stability index was 1.83.

On to FSHDGLHVASLADWKMVRFWRIDE [D14W], for which the protein stability index was determined as 2.53. FSHDGLHVASLADKKMVRFWRIDE [D14K]: the protein stability index was determined as 1.96. Regarding ASHDGLHVASLADDKMVRFWRIDE [F1A], the protein stability index turned out to be 2.85. For NSHDGLHVASLADDKMVRFWRIDE [F1N] the value was 3.25; for GSHDGLHVASLADDKMVRFWRIDE [F1G], 3.43. As for PSHDGLHVASLADDKMVRFWRIDE [F1P], the protein stability index was found to be 3.52. For FSHDGLHVASLADDAMVRFWRIDE [K15A] the value was 2.18. For FSHDGLHVASLADDYMVRFWRIDE [K15Y], the protein stability index was found to be 1.34.

For FSHDGLHVASLADDTMVRFWRIDE [K15T], the protein stability index came to 1.44.

Take FSHDGLHVASLADDQMVRFWRIDE [K15Q]: the protein stability index stood at 1.04. For FSHDGLHVASLADDWMVRFWRIDE [K15W] the value was 1.67; for FSHDGLHRASLADDKMVRFWRIDE [V8R], 1.84; for FSHDGLHQASLADDKMVRFWRIDE [V8Q], 3.68. Consider FSHDGLHCASLADDKMVRFWRIDE [V8C], for which the protein stability index is 1.38. Then FSHDGLHTASLADDKMVRFWRIDE [V8T], with 1.86. Take FSHDGPHVASLADDKMVRFWRIDE [L6P]: the protein stability index came to 1.63. With FSHDGMHVASLADDKMVRFWRIDE [L6M], the protein stability index amounted to 2.41. FSHDGHHVASLADDKMVRFWRIDE [L6H]: the protein stability index came out at 2.27.

In the case of FSHDGTHVASLADDKMVRFWRIDE [L6T], the protein stability index was 1.67. In the case of FSHDGLHVASLADDKMVRFWRYDE [I22Y], the protein stability index turned out to be 1.69. Consider FSHDGLHVASLADDKMVRFWRDDE [I22D], for which the protein stability index worked out at 2.27.

For FSHDGLHVASLADDKMVRFWRPDE [I22P], the protein stability index stood at 2.64. With FRHDGLHVASLADDKMVRFWRIDE [S2R], the protein stability index was 2.61. Then FYHDGLHVASLADDKMVRFWRIDE [S2Y], with 1.83; and FDHDGLHVASLADDKMVRFWRIDE [S2D], with 3.79.

In the case of FVHDGLHVASLADDKMVRFWRIDE [S2V], the protein stability index came to 2.64. As to FSHDGLHVASLADDKRVRFWRIDE [M16R], the protein stability index is 2.76.

FSHDGLHVASLADDKVVRFWRIDE [M16V]: the protein stability index is 2.88.

In the case of FSHDGLHVASLADDKCVRFWRIDE [M16C], the protein stability index worked out at 2.98. Turning to FSHDGLHVASLADDKHVRFWRIDE [M16H], the protein stability index worked out at 2.45.

Take FSHDGLHVAQLADDKMVRFWRIDE [S10Q]: the protein stability index amounted to 1.82. Take FSHDGLHVAPLADDKMVRFWRIDE [S10P]: the protein stability index came to 1.63. For FSHDGLHVADLADDKMVRFWRIDE [S10D], the protein stability index came out at 2.03. FSHDGLHVAGLADDKMVRFWRIDE [S10G]: the protein stability index worked out at 1.65. Then FSHDGLHVALLADDKMVRFWRIDE [S10L], with 1.87.

Source of the values: the supplement of paper PMC10567573.
